Laboratory results from the supplement of paper PMC7125110.
± gives the standard error. Fewer inactive variants are shown than the library holds.

B1: glmS ribozyme (parent)
chain: AUAAAAGCGCCAGAACUACAGAAAUGUAGUUGACGAGGAGGAGGUUUAUCGAAUUUUCGGCGGAUGCCUCCAAA

Variants of: B1
Assay: self-cleavage kobs at 2500 uM GlcN6P; higher = faster cleavage; RNA array
Details: with glucosamine-6-phosphate
In short: (§1)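 Weighted Michaelis–Menten fits across concentrations supplied kcat and KM, based on kobs from one- or two-exponential decay fits to normalised per-tile medians. The data came from barcoded ribozyme variants transcribed in situ by E. coli RNA polymerase on sequenced MiSeq chips and tracked at 37 °C by a hybridised Cy3 probe. Glucosamine-6-phosphate (40 μM to 10 mM) in HEPES/KCl/Mg(OAc)2 buffer was flowed in.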

| Variant | self-cleavage kobs at 2500 uM GlcN6P [s⁻¹] |
| --- | --- |
| AUAAAAGCGCCAGGACUACAGAAAUGUAGUUGACGAGGAGGAGGUUUAUCGAAUGUUCGGCGGAUUCCUCCAAA [A14G U55G G66U] | 0.00182 ± 0.00038 |
| AUAAAAGCGCCAGAACUACAGAAAUGUAGUUGACGAGAAGGAGGUUUAUCGAAUUUUCGGCAGAUGGCUCCAAA [G38A G62A C67G] | < 1e-05 |
| AUAAAAACGCCAGCACUACAGAAAUGUAGAUGACGAGGAGGAGGUUUAUCGAAUUUUCGGCGGAUGCCUCCAAA [G7A A14C U30A] | < 1e-05 |
| AUAAAAGCGCCAGACCUACAGAAAUGUAGUUAACGAGGAGGAGGUUUAUCGAAUUUUCGGCGGAUGCCACCAAA [A15C G32A U69A] | 0.000103 ± 3.2e-05 |
| AUAAAAGCGCCAGAACUACAGAAAUGUAGUUGACGAGGAGCUGGUUUAUCGAAUUUUCGCCCGAUGCCUCCAAA [G41C A42U G60C G62C] | < 1e-05 |
| AUAAAAGCGUCAGAACUACAGAAAUGUAGUUGACGAGGAGGAGGUUUCUCGAAUUUUUGGCGGAUGCCUCCAAA [C10U A48C C58U] | < 1e-05 |
| AUAAAAGCGCCAGAACUACAGAAAUGUAGGUGACGAGGAGCAGGUUUAUCGAAUUUUUGGCGGAUGCCUCCAAA [U30G G41C C58U] | < 1e-05 |
| AUAAAAGCGCCAGAACUACAGAAAUGUAGUUGACGAGGAAGAGGUUUAUCGAAUUUUCGGCGGACGCCUCCAAA [G40A U65C] | 0.000394 ± 0.00015 |
| AUAAAUGCGCCAGAACUACAGAAAUGUAGUUGACGAGGAGGAGAUUUAUCGAAUUAUCGGCGGAUGCCUCCAAA [A6U G44A U56A] | < 1e-05 |
| AUAAAAGCGCCAGAACUACAGAAAUGUAGUUGCCGAGGAGGAGGUUUAUUGAAUUCUCGGCGGAUGCCUCCAAA [A33C C50U U56C] | < 1e-05 |
| AUAAAAGCGACAGAACUACAGAAAUGUAGUUGACGAGGAGGAGGUUUAUCGAAUUUUCGGCCGAUGCAUCCAAA [C10A G62C C68A] | 0.00024 ± 0.00011 |
| AUAAAGGCGCCGGAACUACAGAAAUGUAGUUGUCGCGGAGGAGGUUUAUCGAAUUUUCGGCGGAUGCCUCCAAA [A6G A12G A33U A36C] | < 1e-05 |
| AUAAAAGCGCCAGAACUACAGAAAUGUAGUUGACGAGGAGGAGGUUUAUCGAAUUUUCGGCGGGCGCCUCCAAA [A64G U65C] | 8.88e-05 ± 2.5e-05 |
| AUAAAAGUGCCAUAACUACAGAAAUGUAGUUGACGAGGUGGGGGUUUAUCGAAUUUUCGGCGGAUGCCUCCAAA [C8U G13U A39U A42G] | < 1e-05 |
| AUAAACGGGCCAGCACUACAGAAAUGUAGUUGACGAGGAGGAGGUUUCUCGAAUUUUCGGCGGAUGCCUCCAAA [A6C C8G A14C A48C] | < 1e-05 |
| AUAAAAGCGCCAGAACUACAGAAAUGUAGCUGACGACCAGGAGGUUUAUCGAAUUUUCGGCGGAUGCCUCCAAA [U30C G37C G38C] | < 1e-05 |

| Variant | self-cleavage kobs at 2500 uM GlcN6P [s⁻¹] |
| --- | --- |
| AUAAAAGCGCCAGAACUACAGAAAUGUAGUUGACGAGUGGGAGGUUUAUCGAAUUUUUUGCGGAUGCCUCCAAA [G38U A39G C58U G59U] | < 1e-05 |
| AUAAAAGCGCCAGAACUACAGAAAUGUAGUUGACGAGGAGGAGGUGUAUGGAAUUUUCGGCGGAUGCGUCCAAA [U46G C50G C68G] | 4.12e-05 ± 2e-05 |
| AUAAAAGCGCCAUAACUACAGAAAUGUAGUUGACGAGGAGGAGGUUUACAGAAUUUUCAGCGGAUGCCUGCAAA [G13U U49C C50A G59A C70G] | 3.99e-05 ± 2e-05 |
| AUAAAAGCGCCAGAACUACAGAAAUGUAGUUGACGAGGAUGAUGUUUAUGGAAUUUUCGGCGGAUGCCUCCAAA [G40U G43U C50G] | < 1e-05 |
| AUAAACGCGCCAGAACUACAGAAAUGUAGUUGACGAGGCGGAGGUUUAUCGAAUUUUCGUCGGAUGCCUCCAAA [A6C A39C G60U] | < 1e-05 |
| AUAAAAGCGCCAGCACUACAGAAAUGUACUUGACGAGGAGGAGGUUUAUCGAAUUUUCGGCGGGUGCCUCCAAA [A14C G29C A64G] | 5.47e-05 ± 2e-05 |
| AUAAAAGCGCCAGAACUACAGAAAUGUAGUUGACGAGGAGGAGGUUUAUCGAAUUUUCGGCGGAUGCUCUCAAA [C68U U69C C70U] | 3.99e-05 ± 1.4e-05 |
| AUAAAAGCGCCAGAUCUACAGAAAUGUAGUUGACGAGGAGGAGGUUUAUCUAAUUUUCGGCGGAAGCCUCCAAA [A15U G51U U65A] | < 1e-05 |
| AUAAAAGCGCCAGAACUACAGAAAUGUAGUUGUCGAGGAGGAGGUUUAUCUAAUUUUCGGCGGAUGUCUCCAAA [A33U G51U C67U] | < 1e-05 |
| AUAAAAGCGCCAGAACUACAGAAAUGUAGUUGACGAGUAGGAGGUUUAUCGAAUUUUCGGCGGAAGCCUGCAAA [G38U U65A C70G] | 0.000107 ± 3.6e-05 |
| AUAAAGGCGCCAGAACUACAGAAAUGUAGUAGACGAGGAGGAGGUUUAACGAAUUUUCGGCGGAUGCCUCCAAA [A6G U31A U49A] | < 1e-05 |
| AUAAAAGCGCCAGGACUACAGAAAUGUAGUUGACUAGGAGGAGGUUUAUCGAAUUUUCGGCGGAUGUCUCCAAA [A14G G35U C67U] | < 1e-05 |
| AUAAAAGCGCCAGAACUACAGAAAUGUAGUUGUCGAGGAGGAGGUUUAUCGAGUUUUCGGCCGACGCCUCCAAA [A33U A53G G62C U65C] | < 1e-05 |
| AUAAAAGCGCCAGAACUACAGAAAUGUAGUUUACAAGGAGGAGGUUUAUCGAAUUUUCGGCGGGUGCCUCUAAA [G32U G35A A64G C71U] | < 1e-05 |
| AUAAAAGCGCCAGAACUACAGAAAUGUAGUUCACGCGGAGGAGGUUUAUCCACUUUUCGGCGGAUACCUCCAAA [G32C A36C G51C A53C G66A] | < 1e-05 |
| AUAAAAGCGCCAGGAGUACAGAAAUGUAGGUGACGAGGAGGAGGUUUACCGAAAUUUCGGCGGAUGGUUCCAAA [A14G C16G U30G U49C U54A C67G C68U] | < 1e-05 |

Variants of: B1
Assay: self-cleavage kobs at 10000 uM GlcN6P; higher = faster cleavage; RNA array
Details: with glucosamine-6-phosphate
In short: as §1

| Variant | self-cleavage kobs at 10000 uM GlcN6P [s⁻¹] |
| --- | --- |
| AUAAAAGCGCCAGGACUACAGAAAUGUAGUUGACGAGGAGGAGGUUUAUCGAAUGUUCGGCGGAUUCCUCCAAA [A14G U55G G66U] | 0.00253 ± 0.00062 |
| AUAAAAGCGCCAGAACUACAGAAAUGUAGUUGACGAGGAAGAGGUUUAUCGAAUUUUCGGCGGACGCCUCCAAA [G40A U65C] | 0.000296 ± 6.1e-05 |
| AUAAAAGCGCCAGAACUACAGAAAUGUAGUUGACGAGGAGGAGGUUUAUCGAAUUUUCGGCGGGCGCCUCCAAA [A64G U65C] | 0.000113 ± 1.6e-05 |
| AUAAAAGCGCCAGAACUACAGAAAUGUAGCUGACGACCAGGAGGUUUAUCGAAUUUUCGGCGGAUGCCUCCAAA [U30C G37C G38C] | < 1e-05 |
| AUAAAAGCGCCAGGAGUACAGAAAUGUAGGUGACGAGGAGGAGGUUUACCGAAAUUUCGGCGGAUGGUUCCAAA [A14G C16G U30G U49C U54A C67G C68U] | < 1e-05 |
